In patent publication US20230227838A1, “ENHANCED CELL SURVIVAL AGAINST BIOTIC AND ABIOTIC STRESSES THROUGH SALICYLICK ACID-INDUCED NPR1 CONDENSATES” (priority 2020, published 2023):

target: sim3-GFP (Arabidopsis thaliana) (UniProt P93002); experiment: sim3-GFP IP, LC-MS/MS
Sequence (P93002 other isoform, or with tags, fused parts or gaps): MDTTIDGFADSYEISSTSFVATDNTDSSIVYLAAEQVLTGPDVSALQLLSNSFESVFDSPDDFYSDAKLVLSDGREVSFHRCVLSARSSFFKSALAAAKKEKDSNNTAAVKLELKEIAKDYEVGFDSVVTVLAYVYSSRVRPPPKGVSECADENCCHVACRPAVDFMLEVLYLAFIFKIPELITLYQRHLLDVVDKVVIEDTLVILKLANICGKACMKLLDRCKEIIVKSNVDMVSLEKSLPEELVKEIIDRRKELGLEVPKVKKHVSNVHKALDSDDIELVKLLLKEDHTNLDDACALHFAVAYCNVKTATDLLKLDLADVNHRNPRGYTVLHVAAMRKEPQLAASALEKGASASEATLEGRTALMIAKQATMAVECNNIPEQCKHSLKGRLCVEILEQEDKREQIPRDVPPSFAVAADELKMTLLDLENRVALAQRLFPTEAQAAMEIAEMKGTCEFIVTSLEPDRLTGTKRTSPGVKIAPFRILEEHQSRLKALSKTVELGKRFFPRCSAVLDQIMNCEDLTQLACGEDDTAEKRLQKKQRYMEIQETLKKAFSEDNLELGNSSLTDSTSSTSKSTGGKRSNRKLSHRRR

Chain of AGD5, NEV, ARF-GAP domain 5 (Q9FL69 whole entry, the tested form may be a part): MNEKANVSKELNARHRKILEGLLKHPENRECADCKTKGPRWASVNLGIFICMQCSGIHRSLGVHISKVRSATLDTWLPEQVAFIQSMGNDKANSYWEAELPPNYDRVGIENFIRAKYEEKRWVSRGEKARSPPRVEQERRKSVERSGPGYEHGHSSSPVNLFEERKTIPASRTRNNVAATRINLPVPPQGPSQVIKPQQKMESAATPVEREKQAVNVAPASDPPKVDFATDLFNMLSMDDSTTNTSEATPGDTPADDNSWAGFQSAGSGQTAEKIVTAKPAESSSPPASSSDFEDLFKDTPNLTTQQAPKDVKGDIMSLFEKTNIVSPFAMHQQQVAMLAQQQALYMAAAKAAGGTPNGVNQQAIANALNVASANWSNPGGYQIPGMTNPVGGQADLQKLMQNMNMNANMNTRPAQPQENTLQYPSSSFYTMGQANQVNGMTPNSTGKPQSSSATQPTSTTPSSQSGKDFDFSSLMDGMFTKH
Chain of BCS1, cytochrome BC1 synthesis (Q8VZG2 whole entry): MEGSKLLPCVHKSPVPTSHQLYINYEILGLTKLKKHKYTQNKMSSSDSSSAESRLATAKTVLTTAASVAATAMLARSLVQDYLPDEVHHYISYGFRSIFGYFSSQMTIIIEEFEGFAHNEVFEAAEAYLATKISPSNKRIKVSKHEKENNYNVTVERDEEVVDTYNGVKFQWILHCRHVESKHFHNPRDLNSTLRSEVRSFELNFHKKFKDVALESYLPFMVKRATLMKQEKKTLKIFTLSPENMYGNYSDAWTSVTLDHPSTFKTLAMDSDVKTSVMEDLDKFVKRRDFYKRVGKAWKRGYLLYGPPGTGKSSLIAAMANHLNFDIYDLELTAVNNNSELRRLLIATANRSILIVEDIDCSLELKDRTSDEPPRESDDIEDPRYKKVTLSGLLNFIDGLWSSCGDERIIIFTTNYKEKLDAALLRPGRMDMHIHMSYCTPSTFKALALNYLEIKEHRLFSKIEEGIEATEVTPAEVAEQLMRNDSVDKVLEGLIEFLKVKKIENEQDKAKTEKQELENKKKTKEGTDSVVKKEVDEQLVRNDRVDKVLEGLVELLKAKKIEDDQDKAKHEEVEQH
Chain of ATSPS4F, Sucrose-phosphate synthase family protein (F4JLK2 whole entry): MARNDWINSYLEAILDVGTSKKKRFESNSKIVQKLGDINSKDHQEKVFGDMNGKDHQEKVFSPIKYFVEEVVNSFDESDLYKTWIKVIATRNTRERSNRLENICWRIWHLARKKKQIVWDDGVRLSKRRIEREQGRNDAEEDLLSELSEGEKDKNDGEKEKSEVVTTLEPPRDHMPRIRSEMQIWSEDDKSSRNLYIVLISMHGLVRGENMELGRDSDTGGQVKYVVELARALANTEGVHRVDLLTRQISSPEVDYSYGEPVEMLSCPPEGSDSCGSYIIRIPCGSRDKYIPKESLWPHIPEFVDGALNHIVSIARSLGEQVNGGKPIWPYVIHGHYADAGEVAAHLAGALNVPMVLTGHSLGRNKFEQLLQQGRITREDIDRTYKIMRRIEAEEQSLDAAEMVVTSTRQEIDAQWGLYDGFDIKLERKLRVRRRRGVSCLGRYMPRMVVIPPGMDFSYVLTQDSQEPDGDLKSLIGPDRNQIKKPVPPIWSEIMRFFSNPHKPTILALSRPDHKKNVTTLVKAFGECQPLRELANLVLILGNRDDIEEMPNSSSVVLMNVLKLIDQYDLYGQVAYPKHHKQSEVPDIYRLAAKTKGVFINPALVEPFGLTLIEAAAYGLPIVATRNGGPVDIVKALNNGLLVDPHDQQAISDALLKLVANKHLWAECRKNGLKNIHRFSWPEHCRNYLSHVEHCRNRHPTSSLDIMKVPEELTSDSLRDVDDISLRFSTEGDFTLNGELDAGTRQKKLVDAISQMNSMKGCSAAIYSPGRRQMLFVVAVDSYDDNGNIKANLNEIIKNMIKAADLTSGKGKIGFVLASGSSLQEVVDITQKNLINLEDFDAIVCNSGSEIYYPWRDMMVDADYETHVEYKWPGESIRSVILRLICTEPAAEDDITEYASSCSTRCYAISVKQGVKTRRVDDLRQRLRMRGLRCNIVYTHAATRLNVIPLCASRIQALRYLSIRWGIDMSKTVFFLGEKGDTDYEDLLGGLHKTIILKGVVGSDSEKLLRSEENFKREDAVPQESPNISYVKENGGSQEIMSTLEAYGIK
Chain of Disease resistance protein (TIR-NBS-LRR class) (AT4G19510) (F4JT80 whole entry): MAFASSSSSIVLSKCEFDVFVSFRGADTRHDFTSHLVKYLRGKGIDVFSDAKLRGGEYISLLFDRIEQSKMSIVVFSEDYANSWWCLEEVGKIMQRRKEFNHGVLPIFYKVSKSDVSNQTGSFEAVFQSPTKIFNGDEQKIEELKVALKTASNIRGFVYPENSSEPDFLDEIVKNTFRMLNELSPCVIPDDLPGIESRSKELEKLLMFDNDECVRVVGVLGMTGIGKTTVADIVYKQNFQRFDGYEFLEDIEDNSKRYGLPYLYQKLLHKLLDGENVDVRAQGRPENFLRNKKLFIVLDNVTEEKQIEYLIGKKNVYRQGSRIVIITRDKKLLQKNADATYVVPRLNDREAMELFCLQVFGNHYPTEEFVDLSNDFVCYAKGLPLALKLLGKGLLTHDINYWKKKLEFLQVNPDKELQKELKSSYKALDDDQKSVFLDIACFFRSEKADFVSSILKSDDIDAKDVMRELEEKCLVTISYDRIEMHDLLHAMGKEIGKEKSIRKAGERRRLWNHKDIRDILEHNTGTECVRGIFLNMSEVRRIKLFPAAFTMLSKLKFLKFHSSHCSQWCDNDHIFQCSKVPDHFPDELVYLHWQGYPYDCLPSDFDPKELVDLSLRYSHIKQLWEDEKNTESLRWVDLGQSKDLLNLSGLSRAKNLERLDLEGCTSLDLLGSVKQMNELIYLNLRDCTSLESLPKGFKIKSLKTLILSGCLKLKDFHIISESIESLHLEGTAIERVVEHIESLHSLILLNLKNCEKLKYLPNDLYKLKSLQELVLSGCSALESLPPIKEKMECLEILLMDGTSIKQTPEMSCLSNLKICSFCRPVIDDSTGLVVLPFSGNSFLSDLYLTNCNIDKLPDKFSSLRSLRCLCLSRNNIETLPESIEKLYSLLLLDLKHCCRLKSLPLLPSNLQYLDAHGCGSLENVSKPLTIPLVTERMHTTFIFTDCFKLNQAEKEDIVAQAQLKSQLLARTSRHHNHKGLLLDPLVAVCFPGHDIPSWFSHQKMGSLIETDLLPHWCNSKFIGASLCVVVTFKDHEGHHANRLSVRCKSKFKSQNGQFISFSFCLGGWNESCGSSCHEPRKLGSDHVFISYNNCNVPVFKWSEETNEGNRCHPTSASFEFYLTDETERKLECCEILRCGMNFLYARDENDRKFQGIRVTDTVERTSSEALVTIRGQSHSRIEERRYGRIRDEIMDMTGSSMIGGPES
Chain of EDS1, enhanced disease susceptability (Q9SU72 2-623): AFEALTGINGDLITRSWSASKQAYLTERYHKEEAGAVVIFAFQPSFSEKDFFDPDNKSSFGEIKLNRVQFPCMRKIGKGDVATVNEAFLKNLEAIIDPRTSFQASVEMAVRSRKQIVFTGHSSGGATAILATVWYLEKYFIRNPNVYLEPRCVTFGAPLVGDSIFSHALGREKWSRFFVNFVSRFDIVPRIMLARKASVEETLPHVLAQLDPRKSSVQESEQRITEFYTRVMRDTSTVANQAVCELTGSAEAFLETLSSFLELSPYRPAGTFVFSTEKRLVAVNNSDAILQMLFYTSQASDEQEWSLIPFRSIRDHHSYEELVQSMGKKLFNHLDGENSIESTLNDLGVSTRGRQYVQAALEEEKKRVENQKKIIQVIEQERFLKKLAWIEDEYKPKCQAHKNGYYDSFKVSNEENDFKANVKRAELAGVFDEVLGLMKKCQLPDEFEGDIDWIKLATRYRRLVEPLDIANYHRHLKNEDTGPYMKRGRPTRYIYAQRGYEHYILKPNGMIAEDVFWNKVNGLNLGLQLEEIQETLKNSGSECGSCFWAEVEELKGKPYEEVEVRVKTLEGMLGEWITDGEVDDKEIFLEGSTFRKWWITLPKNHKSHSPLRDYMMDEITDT
Chain of ATCNX1, CNX1, calnexin 1 (P29402 21-530): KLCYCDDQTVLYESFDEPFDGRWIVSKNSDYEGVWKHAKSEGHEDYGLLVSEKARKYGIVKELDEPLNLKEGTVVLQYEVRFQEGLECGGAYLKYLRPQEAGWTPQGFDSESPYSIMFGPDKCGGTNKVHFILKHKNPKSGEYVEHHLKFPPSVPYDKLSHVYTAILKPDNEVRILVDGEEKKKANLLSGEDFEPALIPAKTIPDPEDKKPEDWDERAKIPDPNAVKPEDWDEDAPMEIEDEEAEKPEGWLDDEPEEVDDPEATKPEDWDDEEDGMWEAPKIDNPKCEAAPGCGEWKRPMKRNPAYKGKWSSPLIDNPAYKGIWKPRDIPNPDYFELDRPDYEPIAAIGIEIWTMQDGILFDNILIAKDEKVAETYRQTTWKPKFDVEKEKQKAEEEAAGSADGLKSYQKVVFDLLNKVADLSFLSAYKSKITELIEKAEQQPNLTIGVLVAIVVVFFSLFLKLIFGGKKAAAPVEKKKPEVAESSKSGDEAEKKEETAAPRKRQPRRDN

Substance | Normalized Fold Change: SA vs Mock
AGD5, NEV, ARF-GAP domain 5 | 8.65 fold
AOAT2, GGT2, alanine-2-oxoglutarate aminotransferase 2 | 10.5 fold
AT3G47630 | 703 fold
AT3G53470 | 4.35 fold
ATCNX1, CNX1, calnexin 1 | 5.26 fold
ATM1, myosin 1 | 2.33 fold
ATMDAR2, Pyridine nucleotide-disulphide oxidoreductase family protein | 2.75 fold
ATPAD4, PAD4, alpha/beta-Hydrolases superfamily protein (from UniProt Q9S745 1-541) | 3.23 fold
ATR4, CYP83B1, RED1, RNT1, SUR2, cytochrome P450, family 83, subfamily B, polypeptide 1 (from UniProt O65782 1-499) | 2.42 fold
ATSPS4F, Sucrose-phosphate synthase family protein | 2.2 fold
BCS1, cytochrome BC1 synthesis | 16 fold
CAM7, calmodulin 7 (from UniProt P59220 1-149) | 3.96 fold
CAND1, cullin-associated and neddylation dissociated (from UniProt Q8L5Y6 2-1219) | 42.1 fold
CER3, FLP1, WAX2, YRE, Fatty acid hydroxylase superfamily | 3320 fold
CTF2B, FAD/NAD(P)-binding oxidoreductase family protein | 3.15 fold
CYP51, CYTOCHROME P450 51G1 | 2.8 fold
DDB1A, damaged DNA binding protein 1A (from UniProt Q9M0V3 1-1088) | 2.52 fold
DDB1B, damaged DNA binding protein 1B (from UniProt O49552 1-1088) | 1620 fold
Disease resistance protein (TIR-NBS class) (AT1G66090) | 6.26 fold

Substance | Normalized Fold Change: SA vs Mock
Disease resistance protein (TIR-NBS class) (AT3G04210) | 7.6 fold
Disease resistance protein (TIR-NBS-LRR class) (AT4G19510) | 5.17 fold
Disease resistance protein (TIR-NBS-LRR class) (AT5G41750) | 10.2 fold
EDA10 | 2.22 fold
EDA39, calmodulin-binding family protein | 3.1 fold
EDS1, enhanced disease susceptability | 3.18 fold
EFE, ethylene-forming enzyme | 2.16 fold
ERF1-2, eukaryotic release factor 1-2 | 2.5 fold
FAD/NAD(P)-binding oxidoreductase family protein (AT5G22140) | 9.82 fold
FUS11, Proteasome component (PCI) domain protein | 2.75 fold
Fes1A | 3.16 fold
GDH1, glutamate dehydrogenase 1 | 86.4 fold
GSTF6, glutathione S-transferase 6 (from UniProt P42760 1-208) | 2.01 fold
GSTU19, glutathione S-transferase TAU 19 (from UniProt Q9ZRW8 1-219) | 2.58 fold
HSP70, heat shock protein 70 | 4.72 fold
IMPA1, importin alpha isoform 1 | 2.09 fold
Leucine-rich repeat (LRR) family protein (AT5G45510) | 5.05 fold
Leucine-rich repeat (LRR) family protein (AT5G45520) | 2270 fold
NAD(P)-binding Rossmann-fold superfamily protein (AT2G29320) | 40 fold
